This experiment has as its target SH2 domain of SHC1 (human) (UniProt P29353). The experiment can be described thus: peptide or protein array.

Some results are limits rather than exact numbers.

Sequence of UniProt P29353 (P29353 488-579): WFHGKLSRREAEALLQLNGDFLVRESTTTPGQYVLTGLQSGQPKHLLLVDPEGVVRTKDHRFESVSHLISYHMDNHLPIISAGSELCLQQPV

A word on the Kd: it is the free concentration of one partner at which half of the binding sites on the other are occupied at equilibrium, for simple one-to-one binding. High values mean a looser complex, low ones a tighter complex. The substance “singly phosphorylated Tarp D peptide (18 amino acids around the ENIYE motif)” returned a Kd below 200 nM.
